Measured values: patent US7351690B2, “Knockout identification of target-specific sites in peptides” (priority 2000, dated 2008)
Square brackets hold non-standard residues; d marks the D form. Ends that are not written are not given here. Nle = CCCC[C@H](N)C(=O)O

What was measured:
[1] = target: T1, hMC5-R (Homo sapiens, UniProt P33032); assay: competitive inhibition binding assay, 125I-NDP-alpha-MSH, hMC5-R membranes; details: 1 μM test peptide; 0.4 nM 125I-NDP-alpha-MSH; hMC5-R membranes
T1 construct: expressed in transfected cells
Experimental: (§1) The competitive inhibition binding assay was conducted using membranes prepared from hMC3-R, hMC4-R, hMC5-R, and B-16 mouse melanoma cells (containing MC1-R) using 0.4 nM ^125I-NDP-alpha-MSH (New England Nuclear, Boston, Mass., USA) in 50 mM HEPES buffer containing 1 mM MgCl2, 2 mM CaCl2, and 5 mM KCl, at pH 7.2. The assay tube also contained a chosen concentration of the test peptide of this invention complexed to a rhenium metal ion, typically at a 1 μM concentration, for determining its efficacy in inhibiting the binding of ^125I-NDP-alpha-MSH to its receptor. Non-specific binding was measured by complete inhibition of binding of ^125I-NDP-alpha-MSH in the assay with the presence of 1 μM alpha-MSH. Incubation was for 90 minutes at room temperature, after which the assay mixture was filtered and the membranes washed three times with ice cold buffer. The filter was dried and counted in a gamma counter for remaining radioactivity bound to the membranes. 100% specific binding was defined as the difference in radioactivity (cpm) bound to cell membranes in the absence and presence of 1 μM alpha-MSH. The cpm obtained in presence of test compounds were normalized with respect to 100% specific binding to determine the percent inhibition of ^125I-NDP-alpha MSH binding. Each assay was conducted in triplicate and the actual mean valves are described.

[2] = target: T2, hMC4-R (Homo sapiens, UniProt P32245); assay: competitive inhibition binding assay, 125I-NDP-alpha-MSH, hMC4-R membranes; details: 1 μM test peptide; 0.4 nM 125I-NDP-alpha-MSH; hMC4-R membranes
T2 construct: expressed in transfected cells
Experimental: as §1

[3] = target: T3, MC1-R (Mus musculus, UniProt Q01727); assay: competitive inhibition binding assay, 125I-NDP-alpha-MSH, B-16 mouse melanoma cell membranes; details: 1 μM test peptide; 0.4 nM 125I-NDP-alpha-MSH; B-16 mouse melanoma cell membranes
T3 construct: membranes prepared from hMC3-R, hMC4-R, hMC5-R, and B-16 mouse melanoma cells (containing MC1-R); endogenous in cells; host or cells: B-16 mouse melanoma cells (membranes)
Experimental: as §1

[4] = target: T4, hMC3-R (Homo sapiens, UniProt P41968); assay: competitive inhibition binding assay, 125I-NDP-alpha-MSH, hMC3-R membranes; details: 1 μM test peptide; 0.4 nM 125I-NDP-alpha-MSH; hMC3-R membranes
T4 construct: expressed in transfected cells
Experimental: as §1

T3 sequence (Q01727 whole entry): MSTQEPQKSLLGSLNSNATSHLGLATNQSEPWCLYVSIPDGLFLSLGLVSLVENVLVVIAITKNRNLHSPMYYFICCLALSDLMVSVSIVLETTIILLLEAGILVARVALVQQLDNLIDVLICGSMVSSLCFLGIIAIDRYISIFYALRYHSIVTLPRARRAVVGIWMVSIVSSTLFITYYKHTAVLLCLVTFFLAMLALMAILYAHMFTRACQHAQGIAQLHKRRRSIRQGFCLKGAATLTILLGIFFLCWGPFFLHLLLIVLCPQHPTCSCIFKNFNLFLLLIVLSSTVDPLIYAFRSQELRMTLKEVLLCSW
T1 sequence (P33032 whole entry): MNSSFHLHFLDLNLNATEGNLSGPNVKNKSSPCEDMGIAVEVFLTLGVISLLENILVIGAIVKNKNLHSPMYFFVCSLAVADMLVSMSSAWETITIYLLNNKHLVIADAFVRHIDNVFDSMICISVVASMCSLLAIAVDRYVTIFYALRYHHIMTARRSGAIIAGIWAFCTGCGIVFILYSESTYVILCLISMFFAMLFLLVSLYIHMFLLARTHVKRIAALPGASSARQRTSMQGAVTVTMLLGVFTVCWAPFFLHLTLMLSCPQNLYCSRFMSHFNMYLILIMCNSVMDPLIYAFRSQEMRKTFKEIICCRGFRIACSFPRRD
T2 sequence (P32245 whole entry): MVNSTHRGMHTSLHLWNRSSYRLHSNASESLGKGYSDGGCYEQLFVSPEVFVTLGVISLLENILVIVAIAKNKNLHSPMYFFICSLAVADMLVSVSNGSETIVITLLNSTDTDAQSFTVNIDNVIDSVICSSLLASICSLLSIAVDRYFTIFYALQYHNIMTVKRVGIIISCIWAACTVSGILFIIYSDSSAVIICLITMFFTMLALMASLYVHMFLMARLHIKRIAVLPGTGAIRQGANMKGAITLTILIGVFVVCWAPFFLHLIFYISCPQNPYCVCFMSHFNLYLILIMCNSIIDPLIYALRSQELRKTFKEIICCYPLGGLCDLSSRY
T4 sequence (P41968 whole entry): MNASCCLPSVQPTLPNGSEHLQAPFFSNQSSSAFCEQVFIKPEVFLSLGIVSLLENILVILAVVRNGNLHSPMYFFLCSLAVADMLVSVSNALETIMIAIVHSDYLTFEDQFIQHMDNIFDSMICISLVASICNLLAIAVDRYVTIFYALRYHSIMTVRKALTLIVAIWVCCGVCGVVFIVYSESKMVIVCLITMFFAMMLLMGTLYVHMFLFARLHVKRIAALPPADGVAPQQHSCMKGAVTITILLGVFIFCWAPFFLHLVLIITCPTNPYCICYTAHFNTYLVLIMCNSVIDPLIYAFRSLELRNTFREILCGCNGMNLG

Substance | % Inhibition at 1 μM at Melanocortin Receptor 5 [1] [%] | % Inhibition at 1 μM at Melanocortin Receptor 4 [2] [%] | % Inhibition at 1 μM at Melanocortin Receptor 1 [3] [%] | % Inhibition at 1 μM at Melanocortin Receptor 3 [4] [%]
Ac-Ser-Tyr-Ser-Nle-Glu-His-Phe-Arg-Trp-Gly-Lys-Gly-D-Cys-Val-NH2 (Ac-SYS[Nle]EHFRWGKG[dC]V-NH2; not fully specified (bridges); printed as Ac-Ser-Tyr-Ser-Nle-Glu-His-Phe-Arg-Trp-Gly-Lys-Gly-D-Cys-Val-NH2; numbers in words are those of the source; also: oxorhenium(V) N3S1 chelate (Re(V)=O)) [2-2] | 32 | 28 | 93 | 26
Ac-Ser-Tyr-Ser-Nle-Glu-His-Phe-Arg-Trp-Gly-Lys-Gly-Val-Cys-NH2 (Ac-SYS[Nle]EHFRWGKGVC-NH2; not fully specified (bridges); printed as Ac-Ser-Tyr-Ser-Nle-Glu-His-Phe-Arg-Trp-Gly-Lys-Gly-Val-Cys-NH2; numbers in words are those of the source; also: oxorhenium(V) N3S1 chelate (Re(V)=O)) [1-1] | 68 | 63 | 95 | 48
Ac-Ser-Tyr-Ser-Nle-Glu-His-Phe-Arg-Trp-Gly-Lys-Gly-Val-D-Cys-NH2 (EHFRWGKGV; not fully specified; Ac-Ser-Tyr-Ser-Nle N-term; D-Cys; amide; printed: Glu-His-Phe-Arg-Trp-Gly-Lys-Gly-Val-) [2-1] | 53 | 46 | 97 | 72
Ac-Ser-Tyr-Ser-Nle-Glu-His-Phe-Cys-Arg-Trp-Gly-Lys-Pro-Val-NH2 (Ac-SYS[Nle]EHFCRWGKPV-NH2; not fully specified (bridges); printed as Ac-Ser-Tyr-Ser-Nle-Glu-His-Phe-Cys-Arg-Trp-Gly-Lys-Pro-Val-NH2; numbers in words are those of the source; also: oxorhenium(V) N3S1 chelate (Re(V)=O)) [1-7] | 0 | 0 | 68 | 0
Ac-Ser-Tyr-Ser-Nle-Glu-His-Phe-D-Cys-Arg-Trp-Gly-Lys-Pro-Val-NH2 ({Ac-Ser-Tyr-Ser-Nle-Glu-H2N}-F[dC]RWGKPV-NH2; numbers in words are those of the source; also: oxorhenium(V) N3S1 chelate via Cys (Re(V)=O)) [2-7] | 0 | 6 | 54 | 0
Tyr-Val-Cys-Nle-Gly-His-D-Phe-Arg-Trp-Asp-Arg-Phe-NH2 (YVC[Nle]GH[dF]RWDRF-NH2; also: Re complex) [3-11] | 92 | 82 | 95 | 85
Tyr-Val-Cys-Nle-Gly-His-Phe-Arg-Trp-Asp-Arg-Phe-NH2 (YVC[Nle]GHFRWDRF-NH2; not fully specified (bridges); printed as Tyr-Val-Cys-Nle-Gly-His-Phe-Arg-Trp-Asp-Arg-Phe-NH2; numbers in words are those of the source; also: oxorhenium(V) N3S1 chelate (Re=O) with Cys) [4-10] | 17 | 2 | 28 | 10
Tyr-Val-Nle-Cys-Gly-His-D-Phe-Arg-Trp-Asp-Arg-Phe-NH2 (YV[Nle]CGH[dF]RWDRF-NH2; not fully specified (bridges); printed as Tyr-Val-Nle-Cys-Gly-His-D-Phe-Arg-Trp-Asp-Arg-Phe-NH2; numbers in words are those of the source; also: oxorhenium(V) N3S1 chelate complex (Re=O)) [3-10] | 86 | 80 | 84 | 78
Tyr-Val-Nle-Cys-Gly-His-Phe-Arg-Trp-Asp-Arg-Phe-NH2 (YV[Nle]CGHFRWDRF-NH2; not fully specified (bridges); printed as Tyr-Val-Nle-Cys-Gly-His-Phe-Arg-Trp-Asp-Arg-Phe-NH2; numbers in words are those of the source; also: oxorhenium(V) N3S1 chelate (Re=O) with Cys) [4-9] | 43 | 4 | 1 | 19
Tyr-Val-Nle-Cys-His-D-Phe-Arg-Trp-Asp-Arg-Phe-NH2 (YV[Nle]CH[dF]RWDRF-NH2; not fully specified (bridges); printed as Tyr-Val-Nle-Cys-His-D-Phe-Arg-Trp-Asp-Arg-Phe-NH2; numbers in words are those of the source; also: oxorhenium(V) N3S1 chelate complex (Re=O)) [5-8] | 98 | 86 | 95 | 89
Tyr-Val-Nle-Gly-Cys-D-Phe-Arg-Trp-Asp-Arg-Phe-NH2 (YV[Nle]GC[dF]RWDRF-NH2; not fully specified (bridges); printed as Tyr-Val-Nle-Gly-Cys-D-Phe-Arg-Trp-Asp-Arg-Phe-NH2; numbers in words are those of the source; also: oxorhenium(V) N3S1 chelate complex (Re=O)) [5-7] | 88 | 69 | 89 | 70
Tyr-Val-Nle-Gly-Cys-His-D-Phe-Arg-Trp-Asp-Arg-Phe-NH2 (YV[Nle]GCH[dF]RWDRF-NH2; not fully specified (bridges); printed as Tyr-Val-Nle-Gly-Cys-His-D-Phe-Arg-Trp-Asp-Arg-Phe-NH2; numbers in words are those of the source; also: oxorhenium(V) N3S1 chelate complex (Re=O)) [3-9] | 67 | 55 | 77 | 69
Tyr-Val-Nle-Gly-Cys-His-Phe-Arg-Trp-Asp-Arg-Phe-NH2 (YV[Nle]GCHFRWDRF-NH2; not fully specified (bridges); printed as Tyr-Val-Nle-Gly-Cys-His-Phe-Arg-Trp-Asp-Arg-Phe-NH2; numbers in words are those of the source; also: oxorhenium(V) N3S1 chelate (Re=O) with Cys) [4-8] | 45 | −1 | 13 | 33
Tyr-Val-Nle-Gly-His-Cys-Arg-Trp-Asp-Arg-Phe-NH2 (YV[Nle]GHCRWDRF-NH2; numbers in words are those of the source; also: oxorhenium(V) N3S1 chelate (Re=O) with Cys) [5-6] | 21 | 4 | 74 | 26
Tyr-Val-Nle-Gly-His-Cys-D-Phe-Arg-Trp-Asp-Arg-Phe-NH2 [3-7] (YV[Nle]GHC[dF]RWDRF-NH2; numbers in words are those of the source; also: oxorhenium(V) N3S1 chelate complex (Re=O)) | 56 | 28 | 39 | 50
Tyr-Val-Nle-Gly-His-Cys-D-Phe-Arg-Trp-Asp-Arg-Phe-NH2 [3-8] (YV[Nle]GHC[dF]RWDRF-NH2; numbers in words are those of the source; also: oxorhenium(V) N3S1 chelate complex (Re=O)) | 84 | 55 | 86 | 60
